Consider three molecules from patent publication US20110152183A1 (Novo Nordisk, published 2011).

The target in assay [1] is T1, Amylin 3(a) receptor (human calcitonin receptor (CTa) coexpressed with RAMP-3) on BHK570 cells (human, UniProt P30988 25-474).
T1 sequence (P30988 whole entry, looked up): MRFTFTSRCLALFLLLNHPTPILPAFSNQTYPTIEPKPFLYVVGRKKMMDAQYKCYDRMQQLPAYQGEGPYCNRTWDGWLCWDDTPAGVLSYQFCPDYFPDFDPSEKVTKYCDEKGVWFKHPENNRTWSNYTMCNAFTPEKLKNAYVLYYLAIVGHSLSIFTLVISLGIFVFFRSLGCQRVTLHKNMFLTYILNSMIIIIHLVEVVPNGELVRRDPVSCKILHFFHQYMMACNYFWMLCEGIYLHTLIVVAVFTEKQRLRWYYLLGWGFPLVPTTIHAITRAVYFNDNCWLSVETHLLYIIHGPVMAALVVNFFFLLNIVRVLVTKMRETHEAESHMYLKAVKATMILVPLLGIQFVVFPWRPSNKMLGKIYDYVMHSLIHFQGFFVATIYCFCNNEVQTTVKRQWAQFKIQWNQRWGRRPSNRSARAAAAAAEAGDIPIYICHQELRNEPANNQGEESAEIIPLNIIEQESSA
T1 sequence (O60896 whole entry, looked up): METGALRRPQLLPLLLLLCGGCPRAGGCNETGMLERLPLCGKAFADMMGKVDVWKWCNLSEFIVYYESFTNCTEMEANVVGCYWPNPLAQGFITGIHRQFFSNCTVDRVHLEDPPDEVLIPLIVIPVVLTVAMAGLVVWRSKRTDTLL
In words: cell-based or functional assay.

The target in assay [2] is Amylin 3(a) receptor (human calcitonin receptor (CTa) coexpressed with RAMP-3) on BHK570 cells (human, UniProt P30988 25-474). In words: cell-based or functional assay. The source holds these as a separate data set.

Positions count from the first letter of the chain named. Bridge positions count the residues as written; N and C are the ends.

With {4‑carboxy‑4‑(19-carboxy-nonadecanoylamino)butyryl}-KCNTATCALGRLSQELHRLQTYPRTNTGSNTY-NH2 (disulfide 2-7), the “EC50 (pM) in luciferase assay” value in assay [1] stood at 50 pM.

B1: Amylin (1-8)-[Arg11,Arg18]sCT (9-27)-amylin (33-37) (peptide)
peptide: KCNTATCALGRLSQELHRLQTYPRTNTGSNTY
HELM: PEPTIDE1{K.C.N.T.A.T.C.A.L.G.R.L.S.Q.E.L.H.R.L.Q.T.Y.P.R.T.N.T.G.S.N.T.Y.[am]}$PEPTIDE1,PEPTIDE1,2:R3-7:R3$$$V2.0; N-terminus assumed
SMILES: CC(C)C[C@H](NC(=O)[C@H](C)NC(=O)[C@@H]1CSSC[C@H](NC(=O)[C@@H](N)CCCCN)C(=O)N[C@@H](CC(N)=O)C(=O)N[C@@H]([C@@H](C)O)C(=O)N[C@@H](C)C(=O)N[C@@H]([C@@H](C)O)C(=O)N1)C(=O)NCC(=O)N[C@@H](CCCNC(=N)N)C(=O)N[C@@H](CC(C)C)C(=O)N[C@@H](CO)C(=O)N[C@@H](CCC(N)=O)C(=O)N[C@@H](CCC(=O)O)C(=O)N[C@@H](CC(C)C)C(=O)N[C@@H](Cc1c[nH]cn1)C(=O)N[C@@H](CCCNC(=N)N)C(=O)N[C@@H](CC(C)C)C(=O)N[C@@H](CCC(N)=O)C(=O)N[C@H](C(=O)N[C@@H](Cc1ccc(O)cc1)C(=O)N1CCC[C@H]1C(=O)N[C@@H](CCCNC(=N)N)C(=O)N[C@H](C(=O)N[C@@H](CC(N)=O)C(=O)N[C@H](C(=O)NCC(=O)N[C@@H](CO)C(=O)N[C@@H](CC(N)=O)C(=O)N[C@H](C(=O)N[C@@H](Cc1ccc(O)cc1)C(N)=O)[C@@H](C)O)[C@@H](C)O)[C@@H](C)O)[C@@H](C)O
Turning to B1, the “EC50 (pM) in luciferase assay” value in assay [1] amounted to 3 pM.

B2: [His1]amylin (1-8)-[His11,His18,His24]sCT (9-27)-amylin (33-37) (peptide)
peptide: B1 peptide with K1H, R11H, R18H, R24H
HELM: PEPTIDE1{H.C.N.T.A.T.C.A.L.G.H.L.S.Q.E.L.H.H.L.Q.T.Y.P.H.T.N.T.G.S.N.T.Y.[am]}$PEPTIDE1,PEPTIDE1,2:R3-7:R3$$$V2.0; N-terminus assumed
SMILES: CC(C)C[C@H](NC(=O)[C@H](C)NC(=O)[C@@H]1CSSC[C@H](NC(=O)[C@@H](N)Cc2c[nH]cn2)C(=O)N[C@@H](CC(N)=O)C(=O)N[C@@H]([C@@H](C)O)C(=O)N[C@@H](C)C(=O)N[C@@H]([C@@H](C)O)C(=O)N1)C(=O)NCC(=O)N[C@@H](Cc1c[nH]cn1)C(=O)N[C@@H](CC(C)C)C(=O)N[C@@H](CO)C(=O)N[C@@H](CCC(N)=O)C(=O)N[C@@H](CCC(=O)O)C(=O)N[C@@H](CC(C)C)C(=O)N[C@@H](Cc1c[nH]cn1)C(=O)N[C@@H](Cc1c[nH]cn1)C(=O)N[C@@H](CC(C)C)C(=O)N[C@@H](CCC(N)=O)C(=O)N[C@H](C(=O)N[C@@H](Cc1ccc(O)cc1)C(=O)N1CCC[C@H]1C(=O)N[C@@H](Cc1c[nH]cn1)C(=O)N[C@H](C(=O)N[C@@H](CC(N)=O)C(=O)N[C@H](C(=O)NCC(=O)N[C@@H](CO)C(=O)N[C@@H](CC(N)=O)C(=O)N[C@H](C(=O)N[C@@H](Cc1ccc(O)cc1)C(N)=O)[C@@H](C)O)[C@@H](C)O)[C@@H](C)O)[C@@H](C)O
Regarding B2, the “EC50 (pM) in luciferase assay” value in assay [2] was 10 pM.
